As usually defined, the Kd is the constant that tells how readily two partners part at equilibrium.

In publication PMC6380570 one finds WST-1 proliferation assay of SW480 cells (which contain RAGE) treated with the S100A4-S100A1 complex (100 nM), against S100A1 alone; pair said to be blocked: S100A1 and the RAGE V domain and Kd data, which are given here for one substance.

The target in assay [1] is S100A1 protein (1-93 amino acids).
The target is the same in assay [2]. Put plainly: other fluorescence titration; tryptophan fluorescence of S100A1 (3.50 uM; excitation 295 nm, emission 344 nm); S100A4 added from 0 to 10.50 uM in steps of about 0.70 uM; 0.1 mM EDTA, 8 mM NaCl, 0.34 mM NaN3, 6 mM CaCl2, 16 mM Tris, pH 6.0; linear (double-reciprocal) fit.

The substance “S100A4 (Mts1) protein (from UniProt P26447 4-101) (natural protein)” displayed a WST-1 proliferation assay of SW480 cells (which contain RAGE) treated with the S100A4-S100A1 complex (100 nM), against S100A1 alone; pair said to be blocked: S100A1 and the RAGE V domain in assay [1] of 1.38 fold. Besides, the dissociation constant Kd in assay [2] is 6.2 µM.
